Results on 25 molecules are retold here after patent US20240368277A1 (ORIONIS BIOSCIENCES, published 2024).

The target of test [1] is T1, His6-tagged recombinant extracellular domain of human signal regulatory protein alpha (hSIRP1α) (human, UniProt P78324 31-373).
T1 construct: extracellular domain; also called antigen; not shown: His6 tag
Kind of test: ELISA, crude periplasmic extracts on coated His6-tagged hSIRP1α extracellular domain. As to the method:
The VHH library was panned on solid-phase coated antigen (200 μg/ml in 100 mM NaHCO₃, pH 9.3) for 3 rounds. The enrichment for antigen-specific phages was assessed after each round of panning by comparing the number of phagemid particles eluted from antigen-coated wells with the number of phagemid particles eluted from negative control (uncoated blocked) wells. […] There was no enrichment after the 1st panning round. In total, 190 colonies from panning round 2 were randomly selected and analyzed by ELISA for the presence of antigen-specific VHHs in their periplasmic extracts (ELISA using crude periplasmic extracts including soluble VHHs) (see FIG. 5). The antigens used for panning and ELISA screening were the same as the ones used for immunization, using uncoated blocked wells as negative control. […] Based on sequence data of the positive colonies, 27 different full length VHHs were distinguished (see FIGS. 4A, 4B, and 5 and SEQ ID Nos: 300-326).
A general note: In an ELISA, binding on a coated surface is turned into a signal by an enzyme label.

In test [2] the target is T2, full length human SIRPA expressed on transiently transfected Hek293T cells (pMET7 FLAG-hSIRPA) (human, UniProt P78324 31-504).
T2 construct: whole, on cells; also called human SIRP1α; human SIRPα
T2 sequence (P78324 31-504): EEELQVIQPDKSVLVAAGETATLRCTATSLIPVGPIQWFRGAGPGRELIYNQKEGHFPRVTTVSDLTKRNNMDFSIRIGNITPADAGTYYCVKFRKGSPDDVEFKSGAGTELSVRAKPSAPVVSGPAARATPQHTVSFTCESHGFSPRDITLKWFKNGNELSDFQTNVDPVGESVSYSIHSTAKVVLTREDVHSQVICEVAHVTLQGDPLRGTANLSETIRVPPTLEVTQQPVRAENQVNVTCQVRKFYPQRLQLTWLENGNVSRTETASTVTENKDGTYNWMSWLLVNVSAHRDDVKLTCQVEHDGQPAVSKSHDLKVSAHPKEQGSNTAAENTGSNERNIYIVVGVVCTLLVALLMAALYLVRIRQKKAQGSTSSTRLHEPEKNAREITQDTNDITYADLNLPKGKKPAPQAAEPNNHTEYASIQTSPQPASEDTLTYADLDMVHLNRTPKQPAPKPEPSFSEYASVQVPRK
Kind of test: FACS, serial dilution of purified VHH on hSIRPA- or empty vector (MOCK)-transfected Hek293T cells; FITC-coupled anti-HA antibody. The method, then:
Expression-vectors (pMECS) encoding the 27 putative human SIRPA binding VHHs were transformed to WK6 cells. VHHs (with a C-terminal HA and His-tag) were expressed in periplasmic extracts upon IPTG overnight stimulation and purified from the periplasmic extracts using the HisPur Cobalt Spin Plates (ThermoFisher) according to the manufacturer's guidelines. Purified VHHs were applied in a FACS binding-assay at 1 μg/ml: Hek293T cells were transiently transfected with a full length human SIRPA plasmid (pMET7 FLAG-hSIRPA) or an empty vector (MOCK). Two days after transfection, cells were resuspended and incubated with purified VHH in FACS buffer (PBS+0.5 mM EDTA+3% FBS). VHH binding was detected using a FITC-coupled anti-HA Ab (Genscript). Samples were acquired with a MACSQuant X instrument (Miltenyi Biotec) and analyzed using the FlowLogic software (Miltenyi Biotec).
Based on this initial binding-experiment and on the comparison of the 27 sequences, 5 VHHs (4 members of sequence group 1 which encompasses 26 sequences and 2HSI22 which is a unique representative of sequence group 2) were studied in more detail for binding to human SIRPA. Binding in FACS was measured as described above. In brief, hSIRPA or empty vector (MOCK) transfected cells were incubated with a serial dilution of purified VHH and binding detected using a FITC-coupled anti-HA Ab (GenScript). Data are summarized in FIG. 7 and illustrate concentration dependent specific binding to hSIRPA for all 5 VHHs.

T1 sequence (P78324 31-373): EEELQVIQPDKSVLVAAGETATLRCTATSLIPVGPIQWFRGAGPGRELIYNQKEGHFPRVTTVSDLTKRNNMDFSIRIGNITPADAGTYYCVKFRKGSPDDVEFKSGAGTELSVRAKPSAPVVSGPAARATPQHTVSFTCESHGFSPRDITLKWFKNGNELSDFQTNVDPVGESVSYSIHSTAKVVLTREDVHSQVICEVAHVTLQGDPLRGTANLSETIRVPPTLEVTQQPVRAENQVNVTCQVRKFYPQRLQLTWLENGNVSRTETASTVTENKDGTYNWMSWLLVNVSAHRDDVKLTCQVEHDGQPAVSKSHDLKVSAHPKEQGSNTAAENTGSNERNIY

B1: 2HSI1 (VHH)
VHH: QVQLQESGGGVVQAGDSLRLSCVASGRTFSSLDMGWFRQAPGKEREFVAGISRSGISQYYADSMKGRFTISRDNAKNLVYLQMNSLKPEDTAVYYCAAALTFRGSDLPRDSNYWGQGTQVTVSS
notes: The entry includes the C-terminal AAA linker, HA tag and His6 tag, as expressed from pMECS
Take B1: the binding result in test [1] is “binds”.

B2: 2HSI86 (VHH)
VHH: QVQLQESGGGLVQPGGSLRLSCAASGRTFSSLDMGWFRQAPGKEREFVAGISRSGISQYYADSMKGRFTISRDNAKNLVYLQINSLKPEDTAVYYCAAALTFRGSDLPRDSNYWGQGTQVTVSS
notes: as for B1
Regarding B2, the binding result in test [2] and in test [1] was “binds” each time.

B3: 2HSI68 (VHH)
VHH: QVQLQESGGGWVQPGGSLRLSCEASGRTSSSLDMGWFRQAPGKEREFVAGISRTGISAYYADSMKGRFTISRDNAKNLVYLQMNSLKSEDTAVYYCAAALTFRGSDLPRDSNYWGQGTQVTVSS
notes: as for B1
For the molecule B3, the binding result in test [1] is listed as “binds”.

B4: 2HSI109 (VHH)
VHH: QVQLQESGGGSVQAGDSLRLSCVASGRTFSSLDMGWFRQAPGKEREFVAGISRTGISAYYADSMKGRFTISRDNAKNLVYLQMNSLKSEDTAVYYCAAALTFRGSDLPRDSNYWGQGTQVTVSS
notes: as for B1
Turning to B4, in test [1], the binding result is on record as “binds”.

B5: 2HSI44 (VHH)
VHH: QVQLQESGGGLVQAGGSLRLSCTASGRTFSSLDMGWFRQAPGKEREFVAGISRSGISQYYADSMKGRFTISRDNAKNLVYLQMNSLKPEDTAVYYCAAALTFRGSDLPRDSNYWGQGTQVTVSS
notes: as for B1
For the molecule B5, the binding result in test [1] is reported as “binds”.

B6: 2HSI40 (VHH)
VHH: QVQLQESGGGVVQAGDSLRLSCVASGRTFSSLDMGWFRQAPGKEREFVAGISRSGISQYYADSMKGRFTISRDNAKSLVYLQMNSLKPEDTAVYYCAAALTFRGSDLPRDSNYWGQGTQVTVSS
notes: as for B1
For B6, the binding result in test [1] is “binds”.

B7: 2HSI113 (VHH)
VHH: QVQLQESGGGLVQAGDSLRLSCVASGRTFSSLDMGWFRQAPGKEREFVAGISRSGISQYYADSMKGRFTISRDNAKNLVYLQMNSLKPEDTAVYYCAAALTFRGSDLPRDSNYWGQGTQVTVSS
notes: as for B1
Consider B7, for which, in test [1], the binding result is recorded as “binds”.

B8: 2HSI24 (VHH)
VHH: QVQLQESGGGVVQAGDSLRLSCVASGRTFSSLDMGWFRQTPGKEREFVAGISRSGISQYYADSMKGRFTISRDNAKNLVYLQMNSLKPEDTAVYYCAAALTFRGSDLPRDSNYWGQGTQVTVSS
notes: as for B1
On to B8, for which the binding result in test [1] is reported as “binds”.

B9: 2HSI98 (VHH)
VHH: QVQLQESGGGVVQAGDSLGLSCVASGRTFSSLDMGWFRQAPGKEREFVAGISRSGISQYYADSMKGRFTISRDNAKNLVYLQMNSLKPEDTAVYYCAAALTFRGSDLPRDSNYWGQGTQVTVSS
notes: as for B1
On to B9, for which the binding result in test [1] was “binds”.

B10: 2HSI32 (VHH)
VHH: QVQLQESGGGVVQAGDSLRLSCVASGRTFSSLDMGWFRQAPGKEREFVAGISRTGISAYYADSMKGRFTISRDNAKNLVYLQMNSLKSEDTAVYYCAAALTFRGSDLPRDSNYWGQGTQVTVSS
notes: as for B1
Consider B10, for which the binding result in test [2] and in test [1] was “binds” in each case.

B11: 2HSI77 (VHH)
VHH: QVQLQESGGGSVQAGGSLRLSCVASGRTFSSLDMGWFRQAPGKEREFVAGISRSGISQYYADSMKGRFTISRDNAKNLVYLQMNSLKPEDTAVYYCAAALTFRGSDLPRDSNYWGQGTQVTVSS
notes: as for B1
Consider B11, for which the binding result in test [1] is recorded as “binds”.

B12: 2HSI110 (VHH)
VHH: QVQLQESGGGLVQSGDSLRLSCVASGRTFSSLDMGWFRQAPGKEREFVAGISRSGISQYYADSMKGRFTISRDNAKNLVYLQMNSLKPEDTAVYYCAAALTFRGSDLPRDSNYWGQGTQVTVSS
notes: as for B1
Take B12: in test [1], the binding result is “binds”.

B13: 2HSI89 (VHH)
VHH: QVQLQESGGGVVQAGDSLRLSCVASERTFSSLDMGWFRQAPGKEREFVAGISRSGISQYYADSMKGRFTISRDNAKNLVYLQMNSLKPEDTAVYYCAAALTFRGSNLPRDSNYWGQGTQVTVSS
notes: as for B1
Turning to B13, the binding result in test [2] and in test [1] was “binds” each time.

B14: 2HSI31 (VHH)
VHH: QVQLQESGGGVVQAGDSLRLSCVASGRTFSSLDMGWFRQAPGKEREFVAGISRSGISQYYADSMRGRFTISRDNAKNLVYLQMNSLKPEDTAVYYCAAALTFRGSDLPRDSNYWGQGTQVTVSS
notes: as for B1
In the case of B14, the binding result in test [1] is given as “binds”.

B15: 2HSI49 (VHH)
VHH: QVQLQESGGGVVQTGDSLRLSCVASGRTFSSLDMGWFRQAPGKEREFVAGISRSGISQYYADSMKGRFTISRDNAKNLVYLQMNSLKPEDTAVYYCAAALTFRGSDLPRDSNYWGQGTQVTVSS
notes: as for B1
For B15, the binding result in test [1] is reported as “binds”.

B16: 2HSI55 (VHH)
VHH: QVQLQESGGGVVQAGDPLRLSCVASGRTFSSLDMGWFRQAPGKEREFVAGISRSGISQYYADSMKGRFTISRDNAKNLVYLQMNSLKPEDTAVYYCAAALTFRGSDLPRDSNYWGQGTQVTVSS
notes: as for B1
Turning to B16, the binding result in test [1] is “binds”.

B17: 2HSI35 (VHH)
VHH: QVQLQESGGGLVQPGGSLRLSCAASGFTFGGYDMGWFRQAPGKEREFVAGISRSGISQYYADSMKGRFTISRDNAKNLVYLQMNSLKPEDTAVYYCAAALTFRGSDLPRDSNYWGQGTQVTVSS
notes: as for B1
As to B17, the binding result in test [2] and in test [1] was “binds” in each case.

B18: 2HSI54 (VHH)
VHH: QVQLQESGGGVVQAGDSLRLSCVASGRTFSSLDMGWFRQAPGKEREFVAGISRSGISQYYANSMKGRFTISRDNAKNLVYLQMNSLKPEDTAVYYCAAALTFRGSDLPRDSNYWGQGTQVTVSS
notes: as for B1
As to B18, the binding result in test [1] is listed as “binds”.

B19: 2HSI90 (VHH)
VHH: QVQLQESGGGVVQAGDSLRLSCVASERTFSSLDMGWFRQAPGKEREFVAGISRSGISQYYADSMKGRFTISRDNAKNLVYLQMNSLKPEDTAVYYCAAALTFRGSDLPRDSNYWGQGTQVTVSS
notes: as for B1
With B19, in test [1], the binding result was “binds”.

B20: 2HSI3 (VHH)
VHH: QVQLQESGGGVVQAGDSLKLSCVASGRTFSSLDMGWFRQAPGKEREFVAGISRSGISQYYADSMKGRFTISRDNAKNLVYLQMNSLKPEDTAVYYCAAALTFRGSDLPRDSNYWGQGTQVTVSS
notes: as for B1
Consider B20, for which the binding result in test [1] is “binds”.

B21: 2HSI105 (VHH)
VHH: QVQLQESGGGVVQAGDSLRLSCVASGRTFSSLDMGWFRQAPGKEREFVAGISRSGISQYYADSMKGRFTISRDNAKNLVYLQMNSLRPEDTAVYYCAAALTFRGSDLPRDSNYWGQGTQVTVSS
notes: as for B1
With B21, the binding result in test [1] is “binds”.

B22: 2HSI102 (VHH)
VHH: QVQLQESGGGVVQAGDSLRLSCVASGRAFSSLDMGWFRQAPGKEREFVAGISRSGISQYYADSMKGRFTISRDNAKNLVYLQMNSLKPEDTAVYYCAAALTFRGSDLPRDSNYWGQGTQVTVSS
notes: as for B1
Regarding B22, in test [1], the binding result is reported as “binds”.

B23: 2HSI80 (VHH)
VHH: QVQLQESGGGVVQAGDSLRLSCVASGRTFSSLDMGWFRQAPGKEREFVAGVSRSGISQYYADSMKGRFTISRDNAKNLVYLQMNSLKPEDTAVYYCAAALTFRGSDLPRDSNYWGQGTQVTVSS
notes: as for B1
For B23, the binding result in test [1] is “binds”.

B24: 2HSI57 (VHH)
VHH: QVQLQESGGGLVQAGGSLRLSCAASGRTFSSLDMGWFRQAPGKEREFVAGISRSGISQYYADSMKGRFTISRDNAKNLVYLQMNSLKPEDTAVYYCAAALTFRGSDLPRDSNYWGQGTQVTVSS
notes: as for B1
Take B24: the binding result in test [1] is listed as “binds”.

B25: 2HSI88 (VHH)
VHH: QVQLQESGGGVVQAGDSLRLSCVASGHTFSSLDMGWFRQAPGKEREFVAGISRSGISQYYADSMKGRFTISRDNAKNLVYLQMNSLKPEDTAVYYCAAALTFRGSDLPRDSNYWGQGTQVTVSS
notes: as for B1
In the case of B25, the binding result in test [1] is recorded as “binds”.
